Laboratory results as given in patent US7612163B1, “Prokineticin 2β peptide and its use” (Janssen Pharmaceutica N.V., priority 2004, dated 2009).
Ends that are not written are not given here.

How the values were obtained:
[1] = target: T1, human prokineticin receptor 2 (PKR2) (human, UniProt Q8NFJ6 1-384); assay: cell-based or functional assay
[2] = target: T2, human prokineticin receptor 1 (PKR1) (human, UniProt Q8TCW9 1-393); assay: cell-based or functional assay
[3] = target: T1, human prokineticin receptor 2 (PKR2); assay: radioligand competition against 100 pM 125I-PK2-f on COS-7 cells expressing PKR2
Experimental: (§1) Radio-Ligand Binding Assays. PKR1 and PKR2 in the expression vector pCIneo (Promega) were transfected into COS-7 cells using LipofectAmine (Invitrogen). Two days after transfection, cells were detached from the culture dishes by 10 mM EDTA in PBS, washed with Dulbecco's Modified Eagle's Medium (DMEM) and seeded in 96-well opaque polylysine-coated plates (BD Biosciences, San Jose, Calif.) at a density of 50,000 cells per well. […] The binding assays were performed in DMEM plus 50 mM HEPES, pH 7.2 and 1% bovine serum albumin in a final volume of 100 µl. The binding assays were carried out at room temperature for 1 hour. After the plates were washed three times with ice cold PBS, Microscint-40 (Packard, Meriden, Conn.) was added and the plates were counted on a Topcount (Packard).
(§2) Different concentrations of PK1, PK2 or PK2β were added to the assays as the competitors. All assays were performed in triplicates. The results are mean values (±S.E.M) of triplicates. Figure 4B:
(§3) Prokineticins bind PKR1 and PKR2 with different affinities. With the purified PK2β available, it was investigated whether PK2β binds PKR1 or PKR2 in comparison with PK1 and PK2. […] Membranes from COS-7 cells transiently expressing PKR1 and PKR2 were used in competition binding assays. The results (FIG. 4A) indicate that PK1, PK2, and PK2β all bind PKR1 with high affinities, with the rank order of potency PK2>PK2β≅PK1.

[4] = target: T2, human prokineticin receptor 1 (PKR1); assay: radioligand competition against 100 pM 125I-PK2-f on COS-7 cells expressing PKR1
Experimental: as §1, §2, §3

[5] = target: T1, human prokineticin receptor 2 (PKR2); assay: cell-based or functional assay; remark: listed apart in the source
[6] = target: T2, human prokineticin receptor 1 (PKR1); assay: cell-based or functional assay; remark: listed apart in the source
[7] = target: T1, human prokineticin receptor 2 (PKR2); assay: radioligand binding on PKR2 expressing cells
[8] = target: T2, human prokineticin receptor 1 (PKR1); assay: radioligand binding on PKR1 expressing cells
PKR1 = PKR1 (Homo sapiens, UniProt Q8TCW9); assay: Radioligand competition binding assay (125I-PK2-f), PKR1 expressing COS-7 cells; parameters: The full-length cDNA coding regions for both PKR1 and PKR2 were PCR-amplified from human fetal brain cDNA; expressed in transfected cells; host or cells: COS-7 (transient, pCIneo); details: FIG. 4A
Sequence of PKR1 (Q8TCW9 whole entry): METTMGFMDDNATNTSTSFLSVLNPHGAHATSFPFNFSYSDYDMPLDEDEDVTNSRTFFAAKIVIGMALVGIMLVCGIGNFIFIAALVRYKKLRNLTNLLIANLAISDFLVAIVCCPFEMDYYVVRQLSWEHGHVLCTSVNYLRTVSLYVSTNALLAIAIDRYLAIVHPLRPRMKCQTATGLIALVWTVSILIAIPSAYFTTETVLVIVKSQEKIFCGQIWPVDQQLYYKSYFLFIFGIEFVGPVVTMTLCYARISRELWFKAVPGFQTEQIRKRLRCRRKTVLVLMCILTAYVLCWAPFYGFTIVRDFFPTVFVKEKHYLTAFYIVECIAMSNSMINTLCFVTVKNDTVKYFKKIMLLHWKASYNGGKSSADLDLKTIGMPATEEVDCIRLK
Experimental: (§4) FIGS. 4A and 4B graphically illustrate that PKs bind the PKR1 and PKR2 with different affinities. COS-7 cells transiently expressing PKR1 or PKR2 were seeded to 96-well plates. ^125I-labeled PK2-f was added to each well at a final concentration of 100 pM. Different concentrations of PK1, PK2 or PK2β were added to the assays as the competitors. All assays were performed in triplicates. The results are mean values (±S.E.M) of triplicates. FIG. 4A provides the results of the binding assay using PKR1 expressing cells.
(§5) Expression, purification, and iodination of C-terminal FLAG-tagged PK2. C-terminal FLAG-tagged PK2 (PK2-f) was constructed as described (Soga et al., 2002). Two primers P9: ATCGAGAATTCGCCACCATGAGGAGCCTGTGCTGCGCCC (SEQ.ID.NO.:11) and P10: GGATCCCTACTTATCGTCGTCATCCTTATAATCCTTTTGGGCTAAACA (SEQ.ID.NO.:12) were used to amplify human whole brain cDNA (Clontech). The PCR-amplified PK2-f was cloned into a mammalian expression vector pCMV-sport1 (Invitrogen). The resulting clones were sequenced to confirm the identities and transfected into COS-7 cells using LipofectAmine (Invitrogen). Three days after transfection, the cell culture supernatant was collected and run through an ANTI-FLAG M2 agarose (Sigma) affinity column. The column was washed with PBS and eluted with […] Glycine HCl, pH 3.0. The eluted protein fraction was immediately neutralized with 1 M Tris-HCl, pH 8.0 and then further purified by reverse-phase HPLC using a C4 column (Vydac). The purified recombinant PK2-f protein was iodinated using Iodogen reagent (Pierce, Rockford, Ill.) and ^125I-NaI (PerkinElmer, Boston, Mass.) as described by Pierce. The iodinated PK2-f was purified by a G-50 (Amersham Pharmacia Biotech) gel filtration column.
(§6) Radio-Ligand Binding Assays. PKR1 and PKR2 in the expression vector pCIneo (Promega) were transfected into COS-7 cells using LipofectAmine (Invitrogen). […] After the plates were washed three times with ice cold PBS, Microscint-40 (Packard, Meriden, Conn.) was added and the plates were counted on a Topcount (Packard).

PKR2 [9] = target: T3, PKR2 (Homo sapiens, UniProt Q8NFJ6); assay: cAMP accumulation (cAMP [125I] FlashPlate) in HEK 293 cells co-expressing PKR2/Gs; type: cell-based; parameters: The full-length cDNA coding regions for both PKR1 and PKR2 were PCR-amplified from human fetal brain cDNA; expressed in transfected cells; host or cells: HEK293 (transient, pCIneo, co-transfected with Gs plasmid); details: FIG. 8C
T3 sequence (Q8NFJ6 whole entry): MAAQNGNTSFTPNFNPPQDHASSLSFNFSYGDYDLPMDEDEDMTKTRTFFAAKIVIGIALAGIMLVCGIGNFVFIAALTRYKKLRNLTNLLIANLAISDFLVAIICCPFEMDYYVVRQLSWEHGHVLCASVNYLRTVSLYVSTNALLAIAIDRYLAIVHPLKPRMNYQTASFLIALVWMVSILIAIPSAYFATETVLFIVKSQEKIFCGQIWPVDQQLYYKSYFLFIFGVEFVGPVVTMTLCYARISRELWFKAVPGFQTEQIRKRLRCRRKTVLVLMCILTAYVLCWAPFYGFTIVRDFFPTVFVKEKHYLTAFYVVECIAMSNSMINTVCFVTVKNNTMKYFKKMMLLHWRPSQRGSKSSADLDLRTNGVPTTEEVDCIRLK
Experimental: FIGS. 8B and 8C illustrate results from HEK 293 cells co-expressing PKR1/Gs (FIG. 8B) or PKR2/Gs (FIG. 8C) stimulated with different PKs at various concentrations (the accumulated cAMP was measured by a cAMP [^125I] FlashPlate Assay kit; the results are mean values (±S.E.M) of triplicate experiments (legend: ▪, PK1; ▴, PK2; ▾, PK2β)).
In a different experiment, PKR1 and PKR2 in the expression vector pCIneo (Promega) were co-transfected with the Gs expression plasmid into HEK293 cells using LipofectAmine (Invitrogen). Two days after transfection, cells were detached with 10 mM EDTA in PBS, resuspended in Dulbecco's Modified Eagle's Medium/F12 (DMEM/F12) media, and then plated on 96-well plates at a density of 50,000 cells per well. Two hours after the seeding, cells culture medium was replaced with DMEM/F12 containing 2 mM isobutylmethylxanthine (Sigma) and incubated for 30 min. Different concentrations of PK1, PK2 or PK2β were added to cells and incubated for an additional 30 min in a final volume of 200 μl/well. The reaction was stopped and cAMP was extracted by adding 20 μl of 0.5 N HCl to each well. Cell culture media were tested for cAMP concentrations by the cAMP [^125I] FlashPlate Assay kit (PerkinElmer) as described by the manufacturer.

PKR2 [10] = target: T3, PKR2; assay: Radioligand competition binding assay (125I-PK2-f), PKR2 expressing COS-7 cells; parameters: The full-length cDNA coding regions for both PKR1 and PKR2 were PCR-amplified from human fetal brain cDNA; expressed in transfected cells; host or cells: COS-7 (transient, pCIneo); details: FIG. 4B
Experimental: as §4, §5, §6

T1 sequence (Q8NFJ6 whole entry): as above
T2 sequence (Q8TCW9 whole entry): as the sequence (Q8TCW9 whole entry) above

B1: human prokineticin 1 (PK1) mature peptide (ligand, UniProt P58294 20-105, looked up)
chain: AVITGACERDVQCGAGTCCAISLWLRGLRMCTPLGREGEECHPGSHKVPFFRKRKHHTCPCLPNLLCSRFPDGRYRCSMDLKNINF
notes: mature; also called EG-VEGF
In the case of B1, the “EC50 for Ca2+ mobilization in PKR expressing HEK 293 cells” value (from here on “EC50 for Ca2+ mobilization”) [1] is reported as 7.7 nM, the “EC50 for Ca2+ mobilization” value [2] is reported as 1.1 nM and the IC50 [3] is reported as 52.2 nM. The IC50 [4] was 27.6 nM, the “EC50 for stimulation of cAMP accumulation (β-galactosidase reporter), SK-N-MC cells” value (“EC50 for stimulation … SK-N-MC cells” below) [5] was 20 nM and the “EC50 for stimulation of cAMP accumulation, HEK 293 cells” value (from here on “EC50 for stimulation … HEK 293 cells”) [5] was 60 nM. The “EC50 for stimulation … SK-N-MC cells” value [6] was 8.34 nM and the “EC50 for stimulation … HEK 293 cells” value [6] was 16.8 nM.

B2: 125I-labeled human PK1 (ligand, UniProt P58294 20-105, looked up)
chain: AVITGACERDVQCGAGTCCAISLWLRGLRMCTPLGREGEECHPGSHKVPFFRKRKHHTCPCLPNLLCSRFPDGRYRCSMDLKNINF
modifications: 125I at Tyr75
notes: mature; Told of only in the discussion, as an attempted radioligand
B2: binds [7]; binds [8].

B3: prokineticin 1 (protein)
chain: AVITGACERDVQCGAGTCCAISLWLRGLRMCTPLGREGEECHPGSHKVPFFRKRKHHTCPCLPNLLCSRFPDGRYRCSMDLKNINF
notes: recombinant human PK1 mature peptide, also known as endocrine gland vascular endothelial growth factor
With B3 the “Binding to PKR1, in words” value (PKR1) was “high affinities”, the “cAMP accumulation in PKR2 expressing HEK293 cells, in words” value (PKR2 [9]) was “high-potency ligands” and the “Binding to PKR2, in words” value (PKR2 [10]) was “high affinity”.

B4: human prokineticin 2 (PK2) (ligand)
chain: AVITGACDKDSQCGGGMCCAVSIWVKSIRICTPMGKLGDSCHPLTRKVPFFGRRMHHTCPCLPGLACLRTSFNRFICLAQK
notes: Made in COS-7 cells with an N-terminal FLAG tag that was removed with enterokinase, then HPLC purified; also called mammalian Bv8
B4 was tested, and the “EC50 for Ca2+ mobilization” value [1] was 3.6 nM, the “EC50 for Ca2+ mobilization” value [2] was 0.8 nM and the IC50 [3] was 6.4 nM. For the same molecule, the IC50 [4] was 4.5 nM, the “EC50 for stimulation … SK-N-MC cells” value [5] was 12.1 nM and the “EC50 for stimulation … HEK 293 cells” value [5] was 41 nM. The “EC50 for stimulation … SK-N-MC cells” value [6] was 1.27 nM and the “EC50 for stimulation … HEK 293 cells” value [6] was 3.17 nM.

B5: prokineticin 2 (protein)
chain: AVITGACDKDSQCGGGMCCAVSIWVKSIRICTPMGKLGDSCHPLTRKVPFFGRRMHHTCPCLPGLACLRTSFNRFICLAQK
notes: recombinant human PK2 peptide expressed in COS-7 cells
For B5, the “Binding to PKR1, in words” value (PKR1) was “high affinities”, the “cAMP accumulation in PKR2 expressing HEK293 cells, in words” value (PKR2 [9]) was “high-potency ligands” and the “Binding to PKR2, in words” value (PKR2 [10]) was “high affinity”.

B6: 125I-labeled C-terminal FLAG-tagged PK2 (ligand)
chain: AVITGACDKDSQCGGGMCCAVSIWVKSIRICTPMGKLGDSCHPLTRKVPFFGRRMHHTCPCLPGLACLRTSFNRFICLAQK
modifications: 125I on the Tyr in the FLAG-tag
notes: Expressed from human PK2 cDNA with its own signal peptide and secreted by COS-7 cells; also called PK2-f; not shown: C-terminal FLAG tag
B6: binds [7]; binds [8].

B7: human PK2β mature peptide (ligand)
chain: AVITGACDKDSQCGGGMCCAVSIWVKSIRICTPMGKLGDSCHPLTRKNNFGNGRQE
modifications: ends and bridges not checked; cysteine pairing not given here
notes: Proteolytically processed form of PK2L secreted by COS-7 cells; The FLAG tag was removed with enterokinase; also called processed product of PK2L
With B7 the “EC50 for Ca2+ mobilization” value [1] was 80 nM, the “EC50 for Ca2+ mobilization” value [2] was 1.5 nM and the IC50 [4] was 34.6 nM. The “EC50 for stimulation … HEK 293 cells” value [5] was greater than 1000 nM and the “EC50 for stimulation … HEK 293 cells” value [6] was 23.4 nM.
